Assay results taken from article PMC6050272, “A TRAF3-NIK module differentially regulates DNA vs RNA pathways in innate immune signaling” (Nature Communications, 2018).

Biological target: the molecule itself
Assay: semi-native SDS PAGE; whole-cell lysates of WT and Nik-/- BMDMs transfected with B-DNA (2 μg/mL) for the indicated times; native sample buffer without β-mercaptoethanol, not boiled, run on SDS gels; immunoblot for STING

B1: STING, endogenous in mouse cells (natural protein, mouse (endogenous in MEFs and BMDMs), UniProt Q3TBT3 1-378, looked up)
chain: MPYSNLHPAIPRPRGHRSKYVALIFLVASLMILWVAKDPPNHTLKYLALHLASHELGLLLKNLCCLAEELCHVQSRYQGSYWKAVRACLGCPIHCMAMILLSSYFYFLQNTADIYLSWMFGLLVLYKSLSMLLGLQSLTPAEVSAVCEEKKLNVAHGLAWSYYIGYLRLILPGLQARIRMFNQLHNNMLSGAGSRRLYILFPLDCGVPDNLSVVDPNIRFRDMLPQQNIDRAGIKNRVYSNSVYEILENGQPAGVCILEYATPLQTLFAMSQDAKAGFSREDRLEQAKLFCRTLEEILEDVPESRNNCRLIVYQEPTDGNSFSLSQEVLRHIRQEEKEEVTMNAPMTSVAPPPSVLSQEPRLLISGMDQPLPLRTDLI
notes: STING (TMEM173), endogenous in murine embryonic fibroblasts and bone marrow-derived macrophages; source: endogenous, MEF lysate and BMDM lysate (cells transfected with B-DNA)
stoichiometry N: 2
